In the supplement of paper PMC10567573:
± gives the standard deviation.

Assay: protein stability index of a GFP-peptide fusion (GPS, HEK-293T) (PSI 1-6); higher = more stable
[1] = treatment: DMSO, c terminus: a fixed tail appended
[2] = treatment: MLN4924 1 uM, 8 h, c terminus: a fixed tail appended
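Also: 24-mer peptide tiles fused after GFP, lentivirally expressed, FACS-sorted into six equal bins by GFP/DsRed ratio, decoded by Illumina sequencing, PSI is the read-weighted mean bin number.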

Sequence	protein stability index [1]	protein stability index [2]	protein stability index (treatment: DMSO, c terminus: native)	protein stability index (treatment: MLN4924 1 uM, 8 h, c terminus: native)
DHNEAMKPEEPPQNLLREKIMKLP [PCMTD1]	4.63 ± 0.32	4.66 ± 0.12		
DHSFSLELGSEVDITEGDRKPDYT [ATF4]	5.2 ± 0.29	5.34 ± 0.18		
DHYAAIKKAWDDLKKYLEPRCPRM [FBXO3]	2.55 ± 0.22	2.69 ± 0.064		
DIDKKHLVLLRDGRTLIGFLRSID [LSM1]	2.3 ± 0.31	2.25 ± 0.18		
DIHGLRKVIDDTNITRLQLETEIE [KRT18]	4.28 ± 0.28	4.16 ± 0.46		
DINREQLNDIFHLLKSHTNVLSVN [TPH1]	2.18 ± 0.17	2.27 ± 0.23		
DIREEIRKVVQSLEQTAREILTLL [TSN]	3.73 ± 0.94	3.57 ± 0.3		
DITQEEYGEFYKSLTNDWEDHLAV [HSP90AB1]	3.85 ± 0.17	4.01 ± 0.22		
DKGEKLLRCKLAAFYRLADLFGWS [ADD1]	2.59 ± 0.64	2.28 ± 0.24		
DKPGTTQIVQLTQQVDTNISVILP [DENND6A]	3.48 ± 0.23	3.68 ± 0.38		
DKVRALEEANADLEVKIRDWYQRQ [KRT16]	4.01 ± 0.11	4.04 ± 0.27		
DKYCPLLIKEGGMPLLRDIIKMAT [ZER1]	2.46 ± 0.3	2.22 ± 0.31		
DLDPLELIALANRFCLPHLVALAE [RHOBTB1]	2.5 ± 0.11	2.14 ± 0.2		
DLPVVQGSSSFSLKGYPSLMRSQS [TRIM29]	3.03 ± 0.25	3.3 ± 0.24		
DLVTGGELFEDIVAREYYSEADAS [CAMK2B]	4.73 ± 0.2	4.52 ± 0.34		
DMKVNPIQGLASKWDYEKNEWKK [COX4I1]			4.45 ± 0.27	4.72 ± 0.24
DMSYSIRHSISMPAMRNSPTFKSF [TPD52L1]	2.94 ± 0.24	2.95 ± 0.32		
DNEDSELNGDYGENIYPYEEDKDE [MIA2]	5.37 ± 0.24	4.86 ± 1.1		

Sequence	protein stability index [1]	protein stability index [2]	protein stability index (treatment: DMSO, c terminus: native)	protein stability index (treatment: MLN4924 1 uM, 8 h, c terminus: native)
DNVAYARAFNTDHQTQLLYQASAM [RAD51]	3.12 ± 0.047	3.27 ± 0.15		
DQIGSEIIEELGEQRDQLERTKSR [VTI1B]	5.53 ± 0.24	5.47 ± 0.37		
DQTALSLEECLRLLEATCPFGENA [NFE2L1]	3.31 ± 0.72	3.8 ± 0.74		
DRDGTINLSEFQHVISRSPDFASS [CIB1]	4.31 ± 0.28	4.31 ± 0.24		
DRLTTFQENQARTHVLSKEVQHLR [LRRC45]	4.12 ± 0.13	4.29 ± 0.16		
DRVGTIKSKVVGDRENGSDNLPSS [TPD52L2]	5.17 ± 0.29	5.17 ± 0.18		
DSFPEGPERLHAIKEQLIQEGLLD [HDAC6]	4.94 ± 0.49	4.76 ± 0.27		
DSHLGGNARGMGIRSPRPASVATW [CTBP1-DT]	3.56 ± 0.24	3.63 ± 0.2		
DSLKPEQLDIEEEGRPGAATFHVG [TFE3]	5.38 ± 0.093	4.96 ± 0.4		
DSMTSQAKPEALSSPKFREEAAFP [ELOA2]	4.9 ± 0.24	4.89 ± 0.13		
DSSWYEPSAELVQTRMAVSLTAAE [ZNF232]	4.26 ± 0.068	4.37 ± 0.29		
DSVDAQNICHVWHMNVEALPEWIS [RNF180]	2.44 ± 0.34	2.62 ± 0.38		
DTDKLLNSASDPSLKDGLSDSDSE [PSD2]	5.45 ± 0.36	5.57 ± 0.074		
DTLGLGKTRRKTSARDASPTPSTD [NCK2]	5.36 ± 0.25	5.15 ± 0.34		
DTLQNDYFAIKQEVVTPDNMCMGR [ETS1]	3.65 ± 0.31	4.05 ± 0.45		
DTLRRRLLAPEAGSHPQQTQKLEE [TOR1AIP2]	5.35 ± 0.3	5.41 ± 0.15		
DTTEEVDHKPKLCRLAKGENGYGF [PDZK1]	3.64 ± 0.32	3.79 ± 0.38		
DTYNDMATLFFNPQESAILQLFHQ [CLCN6]	2.6 ± 0.34	2.43 ± 0.21		
